From the supplement of paper PMC11246515
± gives the standard deviation of the averaged measurements.

Assay: total protein half-life in vivo (active degradation + dilution); higher = more stable protein
[1] = E. coli NCM3722 delta-clpP delta-lon delta-hslV, growth: N-lim chemostat, doubling time 6 h
[2] = E. coli NCM3722 delta-clpP, growth: N-lim chemostat, doubling time 6 h
[3] = E. coli NCM3722 delta-hslV, growth: N-lim chemostat, doubling time 6 h
[4] = E. coli NCM3722 delta-lon, growth: N-lim chemostat, doubling time 6 h
[5] = E. coli NCM3722 delta-smpB, growth: N-lim chemostat, doubling time 6 h
[6] = wild type E. coli NCM3722, growth: C-lim chemostat, doubling time 3 h
[7] = wild type E. coli NCM3722, growth: C-lim chemostat, doubling time 6 h
[8] = wild type E. coli NCM3722, growth: C-lim chemostat, doubling time 12 h
[9] = wild type E. coli NCM3722, growth: N-lim chemostat, doubling time 6 h
[10] = wild type E. coli NCM3722, growth: N-lim chemostat, doubling time 12 h
[11] = wild type E. coli NCM3722, growth: P-lim chemostat, doubling time 6 h
[12] = wild type E. coli NCM3722, growth: P-lim chemostat, doubling time 12 h

Sequence	total protein half-life in vivo [1]	total protein half-life in vivo [2]	total protein half-life in vivo [3]	total protein half-life in vivo [4]	total protein half-life in vivo [5]	total protein half-life in vivo [6]	total protein half-life in vivo [7]	total protein half-life in vivo [8]	total protein half-life in vivo [9]	total protein half-life in vivo [10]	total protein half-life in vivo [11]	total protein half-life in vivo [12]
MTTLKLDTLSDRIKAHKNALVHIVKPPVCTERAQHYTEMYQQHLDKPIPVRRALALAHHLANRTIWIKHDELIIGNQASEVRAAPIFPEYTVSWIEKEIDDLADRPGAGFAVSEENKRVLHEVCPWWRGQTVQDRCYGMFTDEQKGLLATGIIKAEGNMTSGDAHLAVNFPLLLEKGLDGLREEVAERRSRINLTVLEDLHGEQFLKAIDIVLVAVSEHIERFAALAREMAATETRESRRDELLAMAENCDLIAHQPPQTFWQALQLCYFIQLILQIESNGHSVSFGRMDQYLYPYYRRDVELNQTLDREHAIEMLHSCWLKLLEVNKIRSGSHSKASAGSPLYQNVTIGGQNLVDGQPMDAVNPLSYAILESCGRLRSTQPNLSVRYHAGMSNDFLDACVQVIRCGFGMPAFNNDEIVIPEFIKLGIEPQDAYDYAAIGCIETAVGGKWGYRCTGMSFINFARVMLAALEGGHDATSGKVFLPQEKALSAGNFNNFDEVMDAWDTQIRYYTRKSIEIEYVVDTMLEENVHDILCSALVDDCIERAKSIKQGGAKYDWVSGLQVGIANLGNSLAAVKKLVFEQGAIGQQQLAAALADDFDGLTHEQLRQRLINGAPKYGNDDDTVDTLLARAYQTYIDELKQYHNPRYGRGPVGGNYYAGTSSISANVPFGAQTMATPDGRKAHTPLAEGASPASGTDHLGPTAVIGSVGKLPTAAILGGVLLNQKLNPATLENESDKQKLMILLRTFFEVHKGWHIQYNIVSRETLLDAKKHPDQYRDLVVRVAGYSAFFTALSPDAQDDIIARTEHML	4.17 h											
MTTMNPFLVQSTLPYLAPHFDQIANHHYRPAFDEGMQQKRAEIAAIALNPQMPDFNNTILALEQSGELLTRVTSVFFAMTAAHTNDELQRLDEQFSAELAELANDIYLNGELFARVDAVWQRRESLGLDSESIRLVEVIHQRFVLAGAKLAQADKAKLKVLNTEAATLTSQFNQRLLAANKSGGLVVNDIAQLAGMSEQEIALAAEAAREKGLDNKWLIPLLNTTQQPALAEMRDRATREKLFIAGWTRAEKNDANDTRAIIQRLVEIRAQQATLLGFPHYAAWKIADQMAKTPEAALNFMREIVPAARQRASDELASIQAVIDKQQGGFSAQPWDWAFYAEQVRREKFDLDEAQLKPYFELNTVLNEGVFWTANQLFGIKFVERFDIPVYHPDVRVWEIFDHNGVGLALFYGDFFARDSKSGGAWMGNFVEQSTLNKTHPVIYNVCNYQKPAAGEPALLLWDDVITLFHEFGHTLHGLFARQRYATLSGTNTPRDFVEFPSQINEHWATHPQVFARYARHYQSGAAMPDELQQKMRNASLFNKGYEMSELLSAALLDMRWHCLEENEAMQDVDDFELRALVAENMDLPAIPPRYRSSYFAHIFGGGYAAGYYAYLWTQMLADDGYQWFVEQGGLTRENGLRFREAILSRGNSEDLERLYRQWRGKAPKIMPMLQHRGLNI	5.48 ± 0.74 h	4.67 ± 0.22 h	4.335 ± 0.038 h	4.65 ± 0.16 h	4.43 ± 0.24 h	3.13 ± 0.13 h	5.67 ± 0.52 h	9.87 ± 0.43 h	4.53 ± 0.2 h	7.84 ± 0.66 h	6.12 ± 0.066 h	11.7 ± 0.94 h
MTTNYIFVTGGVVSSLGKGIAAASLAAILEARGLNVTIMKLDPYINVDPGTMSPIQHGEVFVTEDGAETDLDLGHYERFIRTKMSRRNNFTTGRIYSDVLRKERRGDYLGATVQVIPHITNAIKERVLEGGEGHDVVLVEIGGTVGDIESLPFLEAIRQMAVEIGREHTLFMHLTLVPYMAASGEVKTKPTQHSVKELLSIGIQPDILICRSDRAVPANERAKIALFCNVPEKAVISLKDVDSIYKIPGLLKSQGLDDYICKRFSLNCPEANLSEWEQVIFEEANPVSEVTIGMVGKYIELPDAYKSVIEALKHGGLKNRVSVNIKLIDSQDVETRGVEILKGLDAILVPGGFGYRGVEGMITTARFARENNIPYLGICLGMQVALIDYARHVANMENANSTEFVPDCKYPVVALITEWRDENGNVEVRSEKSDLGGTMRLGAQQCQLVDDSLVRQLYNAPTIVERHRHRYEVNNMLLKQIEDAGLRVAGRSGDDQLVEIIEVPNHPWFVACQFHPEFTSTPRDGHPLFAGFVKAASEFQKRQAK [P0A7E5]	6.37 ± 0.47 h	5.64 ± 0.39 h	5.16 ± 0.13 h	5.75 ± 0.15 h	5.11 ± 0.71 h	3.06 ± 0.25 h	6.11 ± 0.39 h	12.3 ± 1.2 h	5.2 ± 0.22 h	9.4 ± 0.35 h	6.161 ± 0.058 h	13.1 ± 0.8 h
MTTQLEQAWELAKQRFAAVGIDVEEALRQLDRLPVSMHCWQGDDVSGFENPEGSLTGGIQATGNYPGKARNASELRADLEQAMRLIPGPKRLNLHAIYLESDTPVSRDQIKPEHFKNWVEWAKANQLGLDFNPSCFSHPLSADGFTLSHADDSIRQFWIDHCKASRRVSAYFGEQLGTPSVMNIWIPDGMKDITVDRLAPRQRLLAALDEVISEKLNPAHHIDAVESKLFGIGAESYTVGSNEFYMGYATSRQTALCLDAGHFHPTEVISDKISAAMLYVPQLLLHVSRPVRWDSDHVVLLDDETQAIASEIVRHDLFDRVHIGLDFFDASINRIAAWVIGTRNMKKALLRALLEPTAELRKLEAAGDYTARLALLEEQKSLPWQAVWEMYCQRHDTPAGSEWLESVRAYEKEILSRRG	3.97 ± 0.74 h	2.97 ± 0.12 h		3.14 ± 0.07 h	2.94 ± 0.21 h		5.85 ± 1.9 h	9.47 h		3.73 h	5.31 ± 0.18 h	8.02 ± 5 h
MTTRVIALDLDGTLLTPKKTLLPSSIEALARAREAGYQLIIVTGRHHVAIHPFYQALALDTPAICCNGTYLYDYHAKTVLEADPMPVIKALQLIEMLNEHHIHGLMYVDDAMVYEHPTGHVIRTSNWAQTLPPEQRPTFTQVASLAETAQQVNAVWKFALTHDDLPQLQHFGKHVEHELGLECEWSWHDQVDIARGGNSKGKRLTKWVEAQGWSMENVVAFGDNFNDISMLEAAGTGVAMGNADDAVKARANIVIGDNTTDSIAQFIYSHLI	5.16 ± 0.18 h	0.903 ± 0.047 h	0.971 ± 0.12 h	1.19 ± 0.11 h	1.09 ± 0.013 h	2.05 ± 0.096 h	3.48 ± 1.5 h	3.08 ± 0.64 h	1.05 ± 0.02 h	1.52 ± 0.12 h	3 ± 0.29 h	4.84 ± 0.26 h
MTVKQTVEITNKLGMHARPAMKLFELMQGFDAEVLLRNDEGTEAEANSVIALLMLDSAKGRQIEVEATGPQEEEALAAVIALFNSGFDED [P0A9N0]	4.886 ± 0.034 h	2.96 h	2.41 h	2.28 h	2.09 h	2.15 ± 0.18 h	3.27 ± 0.19 h	4.27 h	2.7 h	3.97 ± 0.24 h	2.35 h	4.46 ± 0.45 h
MTVQDYLLKFRKISSLESLEKLYDHLNYTLTDDQELINMYRAADHRRAELVSGGRLFDLGQVPKSVWHYVQ	6.59 ± 0.11 h			5.67 ± 0.55 h	4.11 ± 0.46 h				3.59 h	6.7 h	2.63 h	6.54 ± 0.37 h
